Measurements taken from patent publication US20210009673A1, “METHODS FOR REGULATING BREAST CANCERS” (priority 2018, published 2021).

Legend:
Assay type in all cases: cell-based, human
Src = assay: phospho-Src tyrosine 416 Western blot in PTN-stimulated U87MG cells; conditions: 50 ng PTN/ml for 5, 10, 15 minutes
β-catenin [1] = assay: β-catenin import into nuclei of HUVS cells (Western blot of nuclear extracts)
Experimental: FIG. 13: FIG. 13 illustrates: (A) human umbilical vein stromal cells not stimulated or stimulated for 60 minutes with 1, 10, 25, 50, 100 and 200 ng/ml of PTN were used to isolate their nuclei and prepare lysates that were analyzed in Western blots probed with anti-β-catenin antibodies (upper panel) and anti-Orc-2 antibodies (lower panel). In (B), human umbilical vein stromal cells not stimulated or stimulated with 100 ng/ml of PTN for 5, 15, 30, 60 minutes were used to isolate their nuclei and prepare lysates that were analyzed in Western blots probed with anti-β-catenin antibodies (upper panel) and anti-Orc-2 antibodies (lower panel).
Cells at confluence were washed with PBS ×2 and incubated for 10 minutes in a lysis buffer containing 100 mM HEPES pH 7.9, 100 mM KCl, […], 1 mM DTT, Complete EDTA-free Protease Inhibitor Cocktail (Roche, Indianapolis, Ind.) and 0.04% IGEPAL (Sigma-Aldrich Co. Ltd, Poole, Dorset, UK). […] Samples were centrifuged and the supernatant nuclear extract was collected and analyzed in Western-blots as described below. […] It was detected with anti-Orc2 antibodies; tubulin was used to mark cytosolic fractions and detected with anti-tubulin antibodies. Samples of the nuclear fractions were used only if tubulin was not detected. […]

Akt = assay: phosphorylation of Akt in PTN-stimulated HUVS cells; conditions: PTN 50 ng/ml, 5 minutes, elevated at 20 minutes
Experimental: (§1) FIG. 11: FIG. 11 illustrates: human umbilical vein stromal cells not stimulated or stimulated with 50 ng/ml of PTN for 2, 5, 10 or 20 minutes were used to prepare cell lysates that were analyzed in Western blots probed with anti-phospho threonine 308 Akt (panel A), anti-phospho serine 473 Akt (panel B), anti-phospho-serine 9 GSK3β (panel C), anti-phospho-serine 33, 37 and […] β-catenin (panel D) or anti-actin antibodies (panel E). Akt was immunoprecipitated from those lysates using anti-Akt antibodies, incubated with a fusion peptide containing the 20 N-terminal amino acids of GSK3β and analyzed in Western-blots probed using anti-phospho-serine 9 GSK3β antibodies (panel F).
To pursue this pathway of nuclear import of β-catenin, HUVS cells were stimulated with PTN (50 ng/ml), lysed, and analyzed in Western blots probed with anti-phosphothreonine 308 Akt or anti-phosphoserine 473 Akt antibodies (FIG. 11, panel A and B). […]
(§2) The association of adaptor proteins that associate with specific phosphorylated sites in activated EGFR are responsible for the activation of phosphatidyl-inositol 3-kinase (PI3K). […] The cells were stimulated with PTN for 2, 5, 10, and 20 minutes, cell lysates were prepared, and the lysates were analyzed in Western blots probed with anti-phospho-Akt (Ser473), anti-phospho-GSKβ (Ser9), and anti-phospho-β-catenin (Thr42) antibodies. […]

GSK3β = assay: phosphorylation of GSK3β serine 9 in PTN-stimulated HUVS cells; conditions: 5, 10 and 20 minutes after PTN
Experimental: as §1
Lysates from HUVS cells stimulated with PTN as above were then analyzed in Western blots probed with anti-phosphoserine 9 GSK3β antibodies. GSK3β is known to be phosphorylated by Akt at serine 9 and to inactivate its catalytic activity. […]
as §2

β-catenin [2] = assay: phosphorylation of serines 33, 37 and threonine 41 in β-catenin in HUVS cells; conditions: 2 minutes after PTN
Experimental: as §1
A key function of activated GSK3β in the pathway of β-catenin translocation into the nuclei is to phosphorylate β-catenin serines 33, 37 and threonine 41. […] The levels of phosphorylation of serine 33, 37 and threonine 41 in β-catenin were therefore measured in Western blots of lysates from PTN-stimulated cells probed with anti-β-catenin antibodies that recognize phosphoserines 33, 37 and threonine 41. […] In the control study, β-catenin phosphorylated in serines 33, 37 and threonine 41 was readily detected when the cells are not stimulated with PTN. […]

B1: pleiotrophin (protein, UniProt P21246 33-168, looked up)
Pleiotrophin: GKKEKPEKKVKKSDCGEWQWSVCVPTSGDCGLGTREGTRTGAECKQTMKTQRCKIPCNWKKQFGAECKYQFQAWGECDLNTALKTRTGSLKRALHNAECQKTVTISKPCGKLTKPKPQAESKKKKKEGKKQEKMLD
tyrosine phosphorylation of Src tyrosine 416 (Src): not increased | β-catenin in nuclei (β-catenin [1]; 1-200 ng/ml PTN, 5-60 minutes): concentration and time-dependent increase | PTN concentration at which increase in nuclear β-catenin was seen (β-catenin [1]; 60 minutes): 10 ng/mL | phosphorylation of Akt threonine 308 and serine 473 (Akt): rapid increase | GSK3β serine 9 phosphorylation (GSK3β): striking increase | phosphorylation of serines 33, 37 and threonine 41 in β-catenin (β-catenin [2]): sharply decreased
